This test addresses BACE1-GFP (UniProt P56817). Put plainly: co-IP.

The text below walks through data of article PMC8413894.

Chain of UniProt P56817 (P56817 46-501): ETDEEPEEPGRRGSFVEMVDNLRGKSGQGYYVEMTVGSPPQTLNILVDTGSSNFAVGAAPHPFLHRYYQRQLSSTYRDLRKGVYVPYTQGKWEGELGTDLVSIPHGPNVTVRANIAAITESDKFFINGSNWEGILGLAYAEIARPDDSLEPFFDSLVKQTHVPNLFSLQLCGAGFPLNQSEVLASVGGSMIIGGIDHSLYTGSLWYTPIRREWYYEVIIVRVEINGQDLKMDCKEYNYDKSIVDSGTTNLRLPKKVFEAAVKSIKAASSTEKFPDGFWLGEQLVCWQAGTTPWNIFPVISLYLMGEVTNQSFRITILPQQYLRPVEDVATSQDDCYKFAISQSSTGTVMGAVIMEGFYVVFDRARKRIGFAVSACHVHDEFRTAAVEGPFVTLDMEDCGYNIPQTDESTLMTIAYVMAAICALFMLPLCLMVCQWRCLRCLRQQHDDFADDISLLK

In turn, “Bin1-KR (siRNA-resistant neuronal Bin1-MYC with the LOAD mutation K358R, rs138047593) (from UniProt O08539-1 1-588) (natural protein)” returned a percent reduction of co-immunoprecipitated Bin1 against Bin1-WT of 65%.
